The labels stand for the following.
B1: Compound 93 (peptide)
peptide: ACPLVNPLCLHPG[2Nal]SCRGQ
modifications: linker 2-9-16 via TATA; not fully specified (C-terminus); printed as ACPLVNPLCLHPG(2Nal)SCRGQ
B2: Compound 17 (peptide)
peptide: [βAla][Sar][Sar][Sar][Sar][Sar][Sar][Sar][Sar][Sar][Sar]ACVPDRRCAYMNVC
modifications: linker 13-19-25 via TATA; not fully specified (C-terminus); printed as (β-Ala)-Sar10-ACVPDRRCAYMNVC
B3: Compound 88 (peptide)
peptide: Ac-CPLVNPLCLHPGWSCRGQ
modifications: linker 1-8-15 via TATA; not fully specified (C-terminus); printed as Ac-CPLVNPLCLHPGWSCRGQ

*1 amine or outer side, *2 acyl side, *3 side chain or, on linkers, in order; H or OH if unused. Bridges are numbered along the chain shown (N, C = ends). Where no end group is shown, it is not given here. [ ]: non-standard residue; d: D form. TATA = O=C(CC[*:1])N1CN(C(=O)CC[*:2])CN(C(=O)CC[*:3])C1; 2Nal = N[C@@H](Cc1ccc2ccccc2c1)C(=O)O; βAla = NCCC(=O)O; Sar = CNCC(=O)O

The target in the assay is T1, Human EphA2 (Ecto), C-terminal polyHis (Human, UniProt P29317 24-537).
T1 construct: extracellular domain; R&D systems 3035-A2 or in-house
T1 sequence (P29317 24-537): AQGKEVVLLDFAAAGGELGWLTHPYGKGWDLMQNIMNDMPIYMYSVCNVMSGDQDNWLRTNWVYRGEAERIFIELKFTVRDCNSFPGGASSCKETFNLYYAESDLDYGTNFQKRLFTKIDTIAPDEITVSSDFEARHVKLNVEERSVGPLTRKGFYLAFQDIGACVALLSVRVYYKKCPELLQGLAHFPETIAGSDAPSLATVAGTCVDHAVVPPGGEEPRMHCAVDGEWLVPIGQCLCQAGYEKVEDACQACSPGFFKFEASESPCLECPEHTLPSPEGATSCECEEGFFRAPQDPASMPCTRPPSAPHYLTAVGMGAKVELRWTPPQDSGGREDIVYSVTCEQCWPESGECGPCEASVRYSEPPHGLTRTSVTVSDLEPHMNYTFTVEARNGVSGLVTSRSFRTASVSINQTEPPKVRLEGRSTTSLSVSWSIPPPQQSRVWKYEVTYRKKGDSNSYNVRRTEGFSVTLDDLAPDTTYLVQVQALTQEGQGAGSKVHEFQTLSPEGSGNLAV
Description: FP competition vs Reference Compound C.
ACPDWGKYCAYPDTICA (linker 2-9-16 via TATA; not fully specified (C-terminus)) [Compound 36] gave a Ki of 0.16 µM.
The result for ACGFMGLEPCVTYCA (linker 2-10-14 via TATA; not fully specified (C-terminus)) [Compound 43] reads 0.234 µM.
The result for B1 reads 0.228 µM.
The result for ACQSCWAYPDTYCA (linker 2-5-13 via TATA; not fully specified (C-terminus)) [Compound 39] reads 0.321 µM; that for ACVPDRRCAFRDVCLTG (linker 2-8-14 via TATA; not fully specified (C-terminus)) [Compound 28], 1.7 µM; that for DLRCGGDPRCAYMNVCA (linker 4-10-16 via TATA) [Compound 18], 0.0708 µM.
With ACTKPTGFCAYPDTICA (linker 2-9-16 via TATA; not fully specified (C-terminus)) [Compound 33], the Ki came out at 0.269 µM.
The result for ACPLVNPLCLEPGWTCAKR (linker 2-9-16 via TATA; not fully specified (C-terminus)) [Compound 85] reads 0.0109 µM.
The same measure for B2: 0.0851 µM.
The same measure for ETVCLPDSRCAYMNVCA (linker 4-10-16 via TATA; not fully specified (C-terminus)) [Compound 23]: 0.13 µM; for ACVPDRRCAFQDVCDHE (linker 2-8-14 via TATA; not fully specified (C-terminus)) [Compound 27]: 0.159 µM; for GSGCKPDSRCAYMNVCA (linker 4-10-16 via TATA; not fully specified (C-terminus)) [Compound 22]: 0.0633 µM.
For the molecule ACGFMGLEPCELYCAHT (linker 2-10-14 via TATA; not fully specified (C-terminus)) [Compound 49], the affinity corresponds to a Ki of 0.144 µM.
Molecule ACVPDRRCAYMNVCA (linker 2-8-14 via TATA) [Compound 16] returned a Ki of 0.07 µM.
The same measure for ESRCSPDARCAYMNVCA (linker 4-10-16 via TATA) [Compound 20]: 0.057 µM.
The result for SRPCVIDSRCAYMNVCA (linker 4-10-16 via TATA) [Compound 19] reads 0.0948 µM; that for ACPLVNPLCLHPGWTCA (linker 2-9-16 via TATA; not fully specified (C-terminus)) [Compound 64], 0.03 µM.
The result for ACPLVNPLCLEPGWTCA (linker 2-9-16 via TATA; not fully specified (C-terminus)) [Compound 84] reads 0.0539 µM; that for ACPMVNPLCLHPGWTCA (linker 2-9-16 via TATA) [Compound 97], 0.02 µM.
In turn, ACPLVNPLCLAPGWTCA (linker 2-9-16 via TATA; not fully specified (C-terminus)) [Compound 82] had a Ki of 0.0462 µM.
The result for ACPMVNPLCLHPGWICA (linker 2-9-16 via TATA; not fully specified (C-terminus)) [Compound 53] reads 0.0154 µM; that for ACPLVNPLCLHPGWSCA (linker 2-9-16 via TATA; not fully specified (C-terminus)) [Compound 86], 0.0561 µM; that for ACPLVNPLCLVPGWSCA (linker 2-9-16 via TATA; not fully specified (C-terminus)) [Compound 57], 0.0354 µM.
The result for ACPLVNPLCLHPGWICA (linker 2-9-16 via TATA; not fully specified (C-terminus)) [Compound 54] reads 0.0152 µM; that for ACPLVNPLCLHPGWRCA (linker 2-9-16 via TATA; not fully specified (C-terminus)) [Compound 55], 0.0206 µM.
The same measure for ACSSCWAYPDSVCA (linker 2-5-13 via TATA; not fully specified (C-terminus)) [Compound 38]: 0.4 µM; for ACRGEWGYCAYPDTICA (linker 2-9-16 via TATA; not fully specified (C-terminus)) [Compound 34]: 0.348 µM; for ACGFMGLVPCNVFCA (linker 2-10-14 via TATA; not fully specified (C-terminus)) [Compound 45]: 0.142 µM.
The molecule TPRCPLVNPLCLMPGWTCA (linker 4-11-18 via TATA; not fully specified (C-terminus)) [Compound 81] yielded a Ki of 0.0098 µM.
The result for ACVPDRRCAFENVCVDH (linker 2-8-14 via TATA; not fully specified (C-terminus)) [Compound 25] reads 0.0973 µM.
The same measure for ACPLVNPLCLTPGWTCTNT (linker 2-9-16 via TATA; not fully specified (C-terminus)) [Compound 94]: 0.0132 µM.
The same measure for B3: 0.00164 µM; for ACVPDRRCAFMNVCEDR (linker 2-8-14 via TATA; not fully specified (C-terminus)) [Compound 26]: 0.0391 µM; for ACMNDWWCAMGWKCA (linker 2-8-14 via TATA) [Compound 15]: 0.278 µM.
The molecule ACRNWGMYCAYPDTICA (linker 2-9-16 via TATA; not fully specified (C-terminus)) [Compound 35] displayed a Ki of 0.283 µM.
The same measure for HSGCRPDPRCAYMNVCA (linker 4-10-16 via TATA) [Compound 21]: 0.0621 µM.
The same measure for ACGFMGLEPCELFCMPK (linker 2-10-14 via TATA; not fully specified (C-terminus)) [Compound 47]: 0.185 µM; for ACGFMGLEPCELFCA (linker 2-10-14 via TATA; not fully specified (C-terminus)) [Compound 46]: 0.0817 µM; for ACGFMGLEPCEMVCA (linker 2-10-14 via TATA; not fully specified (C-terminus)) [Compound 42]: 0.321 µM.
With ACGFMGLEPCEMYCA (linker 2-10-14 via TATA; not fully specified (C-terminus)) [Compound 50], the inhibition constant Ki was determined as 0.14 µM.
The result for ACGFMGLEPCELVCA (linker 2-10-14 via TATA; not fully specified (C-terminus)) [Compound 44] reads 0.127 µM.
With ACGFMGLEPCETFCA (linker 2-10-14 via TATA; not fully specified (C-terminus)) [Compound 40], affinity was put at a Ki of 0.188 µM.
The molecule ACGFMGLVPCEVHCA (linker 2-10-14 via TATA; not fully specified (C-terminus)) [Compound 41] displayed a Ki of 0.155 µM.

The term Ki denotes a dissociation constant, usually derived from enzyme kinetics or from competition with a known ligand. Lower therefore signals a stronger hold on the target.

The values above are taken from patent publication US20240000957A1 (published 2024).
